According to patent publication US20200392251A1 (University of California, published 2020):

How the values were obtained:
[1] = target: T1, human MMP-12 catalytic domain wild type (cdMMP-12 wt) (human, UniProt P39900 106-263); assay: competitive ELISA: nTIMP-2 (0.8-200 µM) premixed with 500 nM Fab LH6 (the competitor displaced), added to immobilised cdMMP-12 wt, bound Fab detected with anti-Fab-HRP (OD450) [panel B, right]
T1 construct: biotinylated for ELISA/BLI; also called wt cdMMP-12; cdMMP-12 wide-type
Description: (§1) On streptavidin coated ELISA plates, 5 μg/mL biotinylated cdMMPs were immobilized and incubated with two-fold serially diluted purified Fabs. Bound Fabs were detected with anti-Fab-HRP (Sigma-Aldrich), and signals were developed by TMB substrate (Thermo Scientific) and measured using a microplate reader (BioTek). […] Bound Fabs were detected using anti-Fab-HRP.

[2] = target: T1, human MMP-12 catalytic domain wild type …; assay: competitive ELISA: nTIMP-2 (0.8-200 µM) premixed with 500 nM Fab LG4 (the competitor displaced), added to immobilised cdMMP-12 wt, bound Fab detected with anti-Fab-HRP (OD450) [panel B, right]
Description: as §1

[3] = target: T2, human MMP-12 catalytic domain mutant D4 (cdMMP-12 D4) (human); assay: competitive ELISA: nTIMP-2 (0.8-200 µM) premixed with 500 nM Fab LG4 (the competitor displaced), added to immobilised cdMMP-12 D4, bound Fab detected with anti-Fab-HRP (OD450) [panel A, right]
T2 construct: PROSS-designed expression-optimised mutant; Cytoplasmically expressed in E. coli, purified on Ni-NTA; biotinylated for ELISA/BLI; also called cdMMP-12 mutant D4; modified D4
Description: as §1

[4] = target: T2, human MMP-12 catalytic domain mutant D4 …; assay: competitive ELISA: nTIMP-2 (0.8-200 µM) premixed with 500 nM Fab LH11 (the competitor displaced), added to immobilised cdMMP-12 D4, bound Fab detected with anti-Fab-HRP (OD450) [panel A, right]
Description: as §1

[5] = target: T2, human MMP-12 catalytic domain mutant D4 …; assay: competitive ELISA: nTIMP-2 (0.8-200 µM) premixed with 500 nM Fab LH6 (the competitor displaced), added to immobilised cdMMP-12 D4, bound Fab detected with anti-Fab-HRP (OD450) [panel A, right]
Description: as §1

[6] = target: T1, human MMP-12 catalytic domain wild type …; assay: competitive ELISA: nTIMP-2 (0.8-200 µM) premixed with 500 nM Fab LH11 (the competitor displaced), added to immobilised cdMMP-12 wt, bound Fab detected with anti-Fab-HRP (OD450) [panel B, right]
Description: as §1

[7] = target: T1, human MMP-12 catalytic domain wild type …; assay: BLItz bio-layer interferometry; printed as 'Affinity ... (nM)'

T1 sequence (P39900 other isoform, or with tags, fused parts or gaps limits assumed): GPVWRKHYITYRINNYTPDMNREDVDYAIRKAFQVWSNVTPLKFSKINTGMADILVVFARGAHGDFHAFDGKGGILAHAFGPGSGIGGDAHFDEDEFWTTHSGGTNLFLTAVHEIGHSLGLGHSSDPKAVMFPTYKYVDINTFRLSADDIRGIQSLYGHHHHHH
T2 sequence (chain, as listed by the source mutant limits assumed): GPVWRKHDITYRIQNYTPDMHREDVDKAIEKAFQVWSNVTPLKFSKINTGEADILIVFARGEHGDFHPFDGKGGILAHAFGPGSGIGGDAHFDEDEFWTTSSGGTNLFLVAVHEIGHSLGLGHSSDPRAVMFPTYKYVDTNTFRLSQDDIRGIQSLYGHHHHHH

- EC50 [1]: 32 µM
- EC50 [2]: 44 µM
- EC50 [3]: 42 µM
- EC50 [4]: 18 µM
- EC50 [5]: 23 µM
- EC50 [6]: 26 µM
- Kd [7]: 0.15 µM
B1: N-terminal domain of tissue inhibitor of metalloproteinases 2 (nTIMP-2) (other, UniProt P16035 27-153, looked up)
chain: CSCSPVHPQQAFCNADVVIRAKAVSEKEVDSGNDIYGNPIKRIQYEIKQIKMFKGPEKDIEFIYTAPSSAVCGVSLDVGGKKEYLIAGKAEGDGKMHITLCDFIVPWDTLSTTQKKSLNHRYQMGCE
notes: domain: N-terminal domain; Periplasmically expressed and purified as reported elsewhere
